Assay results as given in the domain aggregation screens of Martell et al. (2025).

assay: soluble fraction after stress (log2 fold change); higher = more stays soluble; pooled small domains, quantitative proteomics; conditions: stress: pH 4
In short: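 Pooled custom libraries of small protein domains were subjected to pH 4 and measured by high-throughput quantitative proteomics. The log2 fold change in soluble amount per domain is reported, higher values meaning more remained soluble. This is used as a measure of aggregation propensity.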

Going from “HMTTPAAISKIKKLEEAKRLLATTTYSMKEIAVKLKYKSHTHFGMDFKNNTGMTPAEYRKAIKAKREKQMN” to “HMTTQERVSYSAFINDVETGRVAKVVISGYTIEGTRTNNSSFVTERPYGVDSNLSEVLMQNSVSIEGKA”, the “soluble fraction (log2)” value falls from 0.173 to -0.523.

Compared with “HMTTQVNTVKIQLANGYEMTVLTSKTNVKEILEDNNIILENNEKVTPNIDEEISSNKTIKITDKSN”, “HMTTTSGLIKTIQTGRRKLGMDDETYRALLADVSGGKTSSKDLNAYQLKEVLRRMREAGFRS” is higher in “soluble fraction (log2)” value: -0.0659 for the first, 0.371 for the second.

Compared with “HMTVDAVALGRRVRHLRKQAGLTLDQLAERTGVSGSHLSLVENARREPRLSLVQRIAEVLGVPVEDL”, “HMTVGEKIQYYRKKIGLSQEELGQKMLLSRQTISLWEMDKTLPTVDNLLRLKEIFSVSIDELLSENEPK” is higher in “soluble fraction (log2)” value: -0.602 for the first, -0.257 for the second.

“HMTVKNFNDLPGFKNENLAELKAMGITTISELAEALNDGGKIKEIIKNLSGVGPKTAEKWKDAIG” and “HMTVKVPDLRGKTLAEMQRILDDAGLKYEINDSTFSRTAIPGTVREVIPAPGSEVKLGRILFIAINGF” are within 0.2 log units of each other in “soluble fraction (log2)” value: -0.173 for the first, 0.00881 for the second.

Compared with “HMTVLIDEQSSDGLLKITVTANTAVKSITIADELLEDKEQLEDYLILVLNKAIARANQVNQTELDAVAK”, “HMTVPAGIVLSSIRQDGDVLHIRGTAQSTERLNFFRNSFSASWGSPAQNGKRKADPVTGLVDFTISLK” is lower in “soluble fraction (log2)” value: 0.163 for the first, -1.16 for the second.

Going from “HMTVPMKILILEDEQRNAMRLIRLLNDIDTTFIIEGPLTNIKEAVDFFQSGKTTDLILADIRL” to “HMTVSADQTTADAVIKLIDAIGTVSKNSGSAISAARSGYDALTDAQKKLVTNYNKLTQAEQVFSSLS”, the “soluble fraction (log2)” value rises from -0.489 to -0.165.

First: HMTVSLTDVPFVPEILDRLERPELDVLLAILNGATNTFDLAAKTGRSRDELDEVLDRLTTLGLIER
Second: HMTVTLTTLRNGSTGAQVKTLQRLLSAMDYYNGETDGKFGISTAAAVKAFQRAKRLTVDGIVGKNTWTALL
The “soluble fraction (log2)” value of the first is lower: -1.12 for the first, -0.0337 for the second.

“HMTVTMADISQAYNEKRYLTTISLSNTYLTFAKPTTELLSIRYRTYFIIGKYAESLTEIAKL” and “HMTVTTDITQYFLQENGLLNGPNARQLRQKIGETLNIGYTNGKQLLKRAQQFGLTRDQILTALKK” are within 0.2 log units of each other in “soluble fraction (log2)” value: 0.22 for the first, 0.278 for the second.

“HMTVVIKVQASQLESWKSSAGTEIKAKLIAVEDEKTYLFVTETGKTIRATAAQLDESSVSRARKLAGL” and “HMTYGYFELKAKNLDSLKQFLKGIAQVESIEEENNGLKVFLKNELESEELSEKLAEAKIFVSHLAKKK” are within 0.2 log units of each other in “soluble fraction (log2)” value: -0.514 for the first, -0.617 for the second.

Compared with “HMTYKPAADFKPSDTSSLKEGMKVEHPKFGFGTVMKMEEVGTERKARINFADFGEKTLLLSFAKLKIHEN”, “HMTYNEYPEKEMQDLIDKSISQQEQAASQYGYSLGDYVTARYGFQSESDFREYVQGLAEDYMKEKI” is lower in “soluble fraction (log2)” value: -0.361 for the first, -1.33 for the second.

“HMTYQHQSIIHRRTRGAILTAAKELLAESGISGTNMIEIADRAQVSRASLYNHFRDKHEVFLALVES” and “HMTYSAWIEKAYSELEKKGITEAELSDALDKRGINLEDLKLMGPDEAVKYQSEVEGVVLELSKSKE” are within 0.2 log units of each other in “soluble fraction (log2)” value: -0.407 for the first, -0.319 for the second.

Compared with “HMTYSEEEIERDLYVRGTLYQIGDLVENKIDGTSGEIVRRGPNYVQYSDGENFYKAFLHSIQEV”, “HMTYTMVAYGSQGDAVRQLQSELNRHGYQLDEDGVFGKKTRAAVRDYQKKNSLRLDGIAGDETWGSLLA” is higher in “soluble fraction (log2)” value: -1.45 for the first, -0.522 for the second.

Going from “HMTYTPRAGSLASQVIGFFRHNPDEELLLDDITDKFDATRGNIHTLLAEAVRFKLLARYRNDDGDYVYKPG” to “HMVAADTVQVPDVTGKTVADAKQALISAGLQVGTVTAKDGKETANTILETSPAAGTSVDKGSKVNLVYSTG”, the “soluble fraction (log2)” value rises from -1.6 to -0.0646.

First: HMVAAITDLPVKSVNGRQMYYYVVRKGETVYSLTHTLGITHDRLVKANRSVEDGLRAGQILYFPVSEFG
Second: HMVAELAEMAENKNITSAQLALAWILKQSENIIPIPGTKRIKYLNENIEAVNVDLSKEDVENIENLLRKYP
The “soluble fraction (log2)” value of the first is higher: -0.00401 for the first, -0.65 for the second.

Going from “HMVAGHLQEKNGQFYAVLSYKDTKGKRRTKWVPTGLMVRGNKKRAEAMLNDIRRKFVPPEQED” to “HMVAGPDEPLSDREQGVLDLLAEGLSNKAISKQLGISVATVKSHLSNIYGKLQAENRMQAVARARELGLM”, the “soluble fraction (log2)” value falls from 0.249 to -0.386.

Going from “HMVAISNTSGLAGVAYWIQSNIPKGIDIRKDNPGIVTIKNWIDEEYRKGRTTTISEEEMFKLVREYMPEL” to “HMVAMGQRVVPLTHLSIDDVRRLLESTYGKDSGIEVTKPGTAAKGVIVTAPRTELDGIVALVKQA”, the “soluble fraction (log2)” value rises from -1.12 to 0.0822.

Going from “HMVAMYLRVGISNGRRYLSIVQGYRDQVTKKVRHNTVKSLGYLDDLEKHYPDPIAHFKAVVEEMNKKQALE” to “HMVANDQILNQYGISDREAEIIGLLIEGLSNQQIAKQLYISPNTVKTHIKNIYAKVGVNNRLQLFSLLK”, the “soluble fraction (log2)” value falls from 0.191 to -0.549.

Compared with “HMVANLPFNYKVYAKKGKLYVVISYKDSNGKYKKKWIRTGLDEGTKKKEVNTVADQIAAEYYSSMRLE”, “HMVAQQINDFRSERDASTGTLKRPLFDTLRDVISSRAQAYVSATGKPVTVEDLDRIYQAVEAEAKQAL” is lower in “soluble fraction (log2)” value: 0.0398 for the first, -0.349 for the second.

Going from “HMVDDELTARRRVNLRRIADELGGAAAVARKTQKSVQQISSMLNGTKSFGSKIARDIEPKLGLPLQSLDKE” to “HMVDDRPVTGTTLIREWQGRAYEVIVQAGHFEFQGQRYQSLSAIAKVITGTVWNGWAFFGLR”, the “soluble fraction (log2)” value falls from 0.203 to -0.444.

Compared with “HMVDDTGLPTVLISDGRLLERNLHRLHLDHTWLQRRLEENNIPSIQSLFLLTVDKQHQLYFLKK”, “HMVDGTPALTDLKKVSKPGRRHYTGSQEIPRVLNGLGISIVSTSKGIMTGAQARRQKVGGELLAFV” is higher in “soluble fraction (log2)” value: -0.277 for the first, 0.22 for the second.

Going from “HMVDIIMDLLEAVAQARPADAFIKSLHIQYQERGGLSKKQLQGLYGKAAKTAGIPPGKLATLEAIILKRP” to “HMVDITPDLIRTLLERFGEYGVTKEHIEARIQRHIESILPAQVVQLRKTYNSLKDGMSQPSDWFDI”, the “soluble fraction (log2)” value falls from -0.0377 to -1.43.

Going from “HMVDLEINGRQTLQFVANKYGIPVEKLATDLNIPSDRFGEKLGRLRRQYAFTMNDVRKSILKNK” to “HMVDPELFIWVESSKEPVYHLAYKIELFVHSTDPQDDVPVHRWQVFVDAHNGNILDKFDEVR”, the “soluble fraction (log2)” value falls from 0.215 to -1.65.

Going from “HMVDPRWETPDENLAEQIKSVMPVMWVYDREAKSFVERPAIDFSFSIFERTTLYIYDKDGNEIGFAR” to “HMVDQVDKDRFLEALTQLGGSAGNVRLRETLQWEEEVYVIIKDALVKSGTILTGRGRGGSVLLASA”, the “soluble fraction (log2)” value falls from 0.0599 to -0.909.

First: HMVDSLTIGRRIRQLRTERGMTLEELAAAVGRAPSQLSMIENGRREPKLTLLQAIARALGSTLDALLE
Second: HMVDVNLLKYYVMESGKSLTDVAAAIGVTPATLHRKMSGESDFYRKEMQDIASYLGLDRDTIDRIFF
The “soluble fraction (log2)” value of the first is higher: -0.404 for the first, -0.892 for the second.

Going from “HMVEDIVLTDAQIEFVKQQAKNGLSAFQISEMIWPEMSVKRFSKQHVAVLDFLREYEPAYVHDSE” to “HMVEELDVQFIKLTVQGDHPWKNKKIRELSIPWDLLFVLIIRGDKSIIPNGKTTIKDGDIVVVSAPEYRG”, the “soluble fraction (log2)” value rises from -1.85 to -1.5.

“HMVEFLMESTNGMYGIVKEGSSYYVQKGINESSLDYIGGMFMKDKNRFSSYSTALKRLELISGQET” and “HMVEGMQFDRGYQSPYFVTNAEKMVAELDNPYILLVEKKISSMKELLPVLEPVAQQGKSLLIISEEVEG” are within 0.2 log units of each other in “soluble fraction (log2)” value: -0.497 for the first, -0.602 for the second.

“HMVEGTVKWFNDEKGFGFIEQEGGKDVFVHFSAINGSGRRTLHEGQRVTMEVTQGQKGPQAENVNP” and “HMVEIPEFKITTFVNTDNEQIAEFENGFTDKKAEITFNNTKYVFKEKLPDQDGIRTYVYEELHE” are within 0.2 log units of each other in “soluble fraction (log2)” value: -0.436 for the first, -0.438 for the second.

Going from “HMVELGMSQNEFIQKFGKPFNKEMAYTYDKHKRETLFYKEDLYRGSWFIVTTAFTFVDSKLVSQEIVREER” to “HMVENMDEFIGRVRRLVSDRLDLLKEASDDEIRETISQVVLELSREQFLTLNEKKTVLEGVFNSMR”, the “soluble fraction (log2)” value falls from -0.349 to -1.38.

“HMVERLVVSPGAGVFAPNKAIANGTRISVGDVLGMVGEQEVRSLFDGVLQSFISVDGERLTAHQPVAWLRT” and “HMVEVPKVAGMSTAQGVSELEQKGFVVNRTESYDDTVPKGNIISQTPEGGTKVPSGSAVTIKISQGAE” are within 0.2 log units of each other in “soluble fraction (log2)” value: -0.111 for the first, -0.0558 for the second.

“HMVEVPNVIGMTKPELTQQFVNLKLDGSGEGDVVVQQSPSEGSKVKEGSTVRVYFG” and “HMVEVPNVSNLTLEQAENKLIQQGLQVKLEGQGEKVVAQIPQPGAVVNKKSTVILF” are within 0.2 log units of each other in “soluble fraction (log2)” value: 0.137 for the first, 0.0373 for the second.

First: HMVFLPDEIFRLKVIKAGEGPEQGVGYLDDGTMVVIEGARDRIGDELEVRVTSTLQTNAGKMIFTKFE
Second: HMVGEPEPIRYSRFLDEMKSGKLDSVVIQGDTILGVRKDKSQFKTVNPETDYSALIGALDKAGVGIEGRA
The “soluble fraction (log2)” value of the first is lower: -2.12 for the first, 0.149 for the second.

Compared with “HMVGEYTVKKGDTLWKIAGQTLGSPLRYAEIYELNKDVIEEAALGRGKKNSSNGHWIFQGTVLKIPA”, “HMVGIAEAMKHIADEDYGDLSAIFKQIFSDTDGGRNFSDAIRTQMRSTDSSGLRKVLSTLIMSIEE” is lower in “soluble fraction (log2)” value: -0.255 for the first, -0.854 for the second.

First: HMVGNEEALRAIVESIIAQNTTEVASFREGKEGLIGWFLGQVMRQTGGKADPKLARQILLELLKQ
Second: HMVGNYYDILGVPETATQDAIKKAFRSLAQQHHPDKNPDDPGAEAMFKKVSEAYQVLSDPDKRQTYDASL
The “soluble fraction (log2)” value of the first is lower: -0.492 for the first, -0.0611 for the second.

Going from “HMVIDFYDPQTKVIHEIKKSSAKEEAHVWQVKYYIYLFEKEEIMGVKGVLEYPLLREIVSVNF” to “HMVINQRKLNLLSIYSSGSEKRAIILFPTGQTKFVKVGDTLDGGRVAAIGTSEIRYLKGGNNLVLRIPG”, the “soluble fraction (log2)” value rises from -0.0844 to 0.173.

With “HMVINTRHTGFVVDDLERFINFYLGLGLKLISRKVESGEYIDKLVGLKGTKLEWAKLSLPDNSMIEILKYH” the “soluble fraction (log2)” value was -0.454.
